{"source": "patent EP4692114A1", "about": "“CALCITONIN ANALOGUE, AND DERIVATIVE THEREOF AND USE THEREOF” (Hangzhou Sciwind Biosciences Co., Ltd., priority 2023, dated 2024)", "note": "*1 amine or outer side, *2 acyl side, *3 side chain or, on linkers, in order; H or OH if unused. The star is where a group is joined. C22 diacid = O=C(O)CCCCCCCCCCCCCCCCCCCCC(=O)*; C20 diacid = O=C(O)CCCCCCCCCCCCCCCCCCC(=O)*; γGlu = O=C(O)[C@H](CCC(=O)[*:2])N[*:1]; AEEA = NCCOCCOCC(=O)O"}
{"target": "T1, human amylin receptor (AMY3) on CHO-K1/Gal5/AMY3 cells (human, UniProt P30988 25-474; O60896 24-148)", "T1 sequence (looked up) 1": "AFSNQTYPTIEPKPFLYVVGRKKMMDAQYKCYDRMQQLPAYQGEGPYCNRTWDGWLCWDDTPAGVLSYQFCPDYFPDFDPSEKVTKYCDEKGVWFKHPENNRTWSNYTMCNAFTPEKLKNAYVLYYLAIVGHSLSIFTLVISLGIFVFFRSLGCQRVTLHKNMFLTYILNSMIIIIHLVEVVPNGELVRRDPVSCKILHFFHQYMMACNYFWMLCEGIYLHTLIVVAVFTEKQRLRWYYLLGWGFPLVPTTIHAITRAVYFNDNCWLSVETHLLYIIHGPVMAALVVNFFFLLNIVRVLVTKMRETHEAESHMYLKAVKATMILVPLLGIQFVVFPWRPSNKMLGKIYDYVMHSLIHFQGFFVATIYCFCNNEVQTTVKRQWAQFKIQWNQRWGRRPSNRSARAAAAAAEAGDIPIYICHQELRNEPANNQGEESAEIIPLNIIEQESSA", "T1 sequence (looked up) 2": "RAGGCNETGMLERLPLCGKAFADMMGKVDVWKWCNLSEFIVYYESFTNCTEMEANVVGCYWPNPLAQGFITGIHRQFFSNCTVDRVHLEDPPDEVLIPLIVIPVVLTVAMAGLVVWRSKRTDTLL", "test": "cell-based or functional assay", "units": {"EC50/nM, CRE-luciferase in amylin receptor/CRE-luc CHO cells": "nM"}}
{"binder": "{C22 diacid-γGlu}-ASQLSTAVLGRLSEELHRLQDYPRTDVGSGSP-NH2 (SMILES CC(C)C[C@H](NC(=O)[C@H](CCCNC(=N)N)NC(=O)CNC(=O)[C@H](CC(C)C)NC(=O)[C@@H](NC(=O)[C@H](C)NC(=O)[C@@H](NC(=O)[C@H](CO)NC(=O)[C@H](CC(C)C)NC(=O)[C@H](CCC(N)=O)NC(=O)[C@H](CO)NC(=O)[C@H](C)NC(=O)CC[C@H](NC(=O)CCCCCCCCCCCCCCCCCCCCC(=O)O)C(=O)O)[C@@H](C)O)C(C)C)C(=O)N[C@@H](CO)C(=O)N[C@@H](CCC(=O)O)C(=O)N[C@@H](CCC(=O)O)C(=O)N[C@@H](CC(C)C)C(=O)N[C@@H](Cc1c[nH]cn1)C(=O)N[C@@H](CCCNC(=N)N)C(=O)N[C@@H](CC(C)C)C(=O)N[C@@H](CCC(N)=O)C(=O)N[C@@H](CC(=O)O)C(=O)N[C@@H](Cc1ccc(O)cc1)C(=O)N1CCC[C@H]1C(=O)N[C@@H](CCCNC(=N)N)C(=O)N[C@H](C(=O)N[C@@H](CC(=O)O)C(=O)N[C@H](C(=O)NCC(=O)N[C@@H](CO)C(=O)NCC(=O)N[C@@H](CO)C(=O)N1CCC[C@H]1C(N)=O)C(C)C)[C@@H](C)O)", "note": "[calcitonin derivative M65]", "EC50/nM, CRE-luciferase in amylin receptor/CRE-luc CHO cells": 0.017}
{"binder": "{C20 diacid-γGlu}-ASQLSTAVLGRLSDELHRLQDLPRTDVGSGSP-NH2 (SMILES CC(C)C[C@H](NC(=O)[C@H](CCCNC(=N)N)NC(=O)CNC(=O)[C@H](CC(C)C)NC(=O)[C@@H](NC(=O)[C@H](C)NC(=O)[C@@H](NC(=O)[C@H](CO)NC(=O)[C@H](CC(C)C)NC(=O)[C@H](CCC(N)=O)NC(=O)[C@H](CO)NC(=O)[C@H](C)NC(=O)CC[C@H](NC(=O)CCCCCCCCCCCCCCCCCCC(=O)O)C(=O)O)[C@@H](C)O)C(C)C)C(=O)N[C@@H](CO)C(=O)N[C@@H](CC(=O)O)C(=O)N[C@@H](CCC(=O)O)C(=O)N[C@@H](CC(C)C)C(=O)N[C@@H](Cc1c[nH]cn1)C(=O)N[C@@H](CCCNC(=N)N)C(=O)N[C@@H](CC(C)C)C(=O)N[C@@H](CCC(N)=O)C(=O)N[C@@H](CC(=O)O)C(=O)N[C@@H](CC(C)C)C(=O)N1CCC[C@H]1C(=O)N[C@@H](CCCNC(=N)N)C(=O)N[C@H](C(=O)N[C@@H](CC(=O)O)C(=O)N[C@H](C(=O)NCC(=O)N[C@@H](CO)C(=O)NCC(=O)N[C@@H](CO)C(=O)N1CCC[C@H]1C(N)=O)C(C)C)[C@@H](C)O)", "note": "[calcitonin derivative M50]", "EC50/nM, CRE-luciferase in amylin receptor/CRE-luc CHO cells": 0.017}
{"binder": "{C20 diacid-γGlu}-RSQLSTEVLGRLSQELHRLQDYPRTDVGSGSP-NH2 (SMILES CC(C)C[C@H](NC(=O)[C@H](CCCNC(=N)N)NC(=O)CNC(=O)[C@H](CC(C)C)NC(=O)[C@@H](NC(=O)[C@H](CCC(=O)O)NC(=O)[C@@H](NC(=O)[C@H](CO)NC(=O)[C@H](CC(C)C)NC(=O)[C@H](CCC(N)=O)NC(=O)[C@H](CO)NC(=O)[C@H](CCCNC(=N)N)NC(=O)CC[C@H](NC(=O)CCCCCCCCCCCCCCCCCCC(=O)O)C(=O)O)[C@@H](C)O)C(C)C)C(=O)N[C@@H](CO)C(=O)N[C@@H](CCC(N)=O)C(=O)N[C@@H](CCC(=O)O)C(=O)N[C@@H](CC(C)C)C(=O)N[C@@H](Cc1c[nH]cn1)C(=O)N[C@@H](CCCNC(=N)N)C(=O)N[C@@H](CC(C)C)C(=O)N[C@@H](CCC(N)=O)C(=O)N[C@@H](CC(=O)O)C(=O)N[C@@H](Cc1ccc(O)cc1)C(=O)N1CCC[C@H]1C(=O)N[C@@H](CCCNC(=N)N)C(=O)N[C@H](C(=O)N[C@@H](CC(=O)O)C(=O)N[C@H](C(=O)NCC(=O)N[C@@H](CO)C(=O)NCC(=O)N[C@@H](CO)C(=O)N1CCC[C@H]1C(N)=O)C(C)C)[C@@H](C)O)", "note": "[calcitonin derivative M32]", "EC50/nM, CRE-luciferase in amylin receptor/CRE-luc CHO cells": 0.03}
{"binder": "{C20 diacid-γGlu}-ASQLSTAVLGRLSQELHRLQDYPRTQSGSGSP-NH2 (SMILES CC(C)C[C@H](NC(=O)[C@H](CCCNC(=N)N)NC(=O)CNC(=O)[C@H](CC(C)C)NC(=O)[C@@H](NC(=O)[C@H](C)NC(=O)[C@@H](NC(=O)[C@H](CO)NC(=O)[C@H](CC(C)C)NC(=O)[C@H](CCC(N)=O)NC(=O)[C@H](CO)NC(=O)[C@H](C)NC(=O)CC[C@H](NC(=O)CCCCCCCCCCCCCCCCCCC(=O)O)C(=O)O)[C@@H](C)O)C(C)C)C(=O)N[C@@H](CO)C(=O)N[C@@H](CCC(N)=O)C(=O)N[C@@H](CCC(=O)O)C(=O)N[C@@H](CC(C)C)C(=O)N[C@@H](Cc1c[nH]cn1)C(=O)N[C@@H](CCCNC(=N)N)C(=O)N[C@@H](CC(C)C)C(=O)N[C@@H](CCC(N)=O)C(=O)N[C@@H](CC(=O)O)C(=O)N[C@@H](Cc1ccc(O)cc1)C(=O)N1CCC[C@H]1C(=O)N[C@@H](CCCNC(=N)N)C(=O)N[C@H](C(=O)N[C@@H](CCC(N)=O)C(=O)N[C@@H](CO)C(=O)NCC(=O)N[C@@H](CO)C(=O)NCC(=O)N[C@@H](CO)C(=O)N1CCC[C@H]1C(N)=O)[C@@H](C)O)", "note": "[calcitonin derivative M17]", "EC50/nM, CRE-luciferase in amylin receptor/CRE-luc CHO cells": 0.042}
{"binder": "{C20 diacid-γGlu}-ASQLSTAVLGRLSQELHRLQDFPRTDVGSGSP-NH2 (SMILES CC(C)C[C@H](NC(=O)[C@H](CCCNC(=N)N)NC(=O)CNC(=O)[C@H](CC(C)C)NC(=O)[C@@H](NC(=O)[C@H](C)NC(=O)[C@@H](NC(=O)[C@H](CO)NC(=O)[C@H](CC(C)C)NC(=O)[C@H](CCC(N)=O)NC(=O)[C@H](CO)NC(=O)[C@H](C)NC(=O)CC[C@H](NC(=O)CCCCCCCCCCCCCCCCCCC(=O)O)C(=O)O)[C@@H](C)O)C(C)C)C(=O)N[C@@H](CO)C(=O)N[C@@H](CCC(N)=O)C(=O)N[C@@H](CCC(=O)O)C(=O)N[C@@H](CC(C)C)C(=O)N[C@@H](Cc1c[nH]cn1)C(=O)N[C@@H](CCCNC(=N)N)C(=O)N[C@@H](CC(C)C)C(=O)N[C@@H](CCC(N)=O)C(=O)N[C@@H](CC(=O)O)C(=O)N[C@@H](Cc1ccccc1)C(=O)N1CCC[C@H]1C(=O)N[C@@H](CCCNC(=N)N)C(=O)N[C@H](C(=O)N[C@@H](CC(=O)O)C(=O)N[C@H](C(=O)NCC(=O)N[C@@H](CO)C(=O)NCC(=O)N[C@@H](CO)C(=O)N1CCC[C@H]1C(N)=O)C(C)C)[C@@H](C)O)", "note": "[calcitonin derivative M49]", "EC50/nM, CRE-luciferase in amylin receptor/CRE-luc CHO cells": 0.075}
{"binder": "{C20 diacid-γGlu}-ASELSTAVLGRLSEELHRLEDYPRTDVGSGSP-NH2 (SMILES CC(C)C[C@H](NC(=O)[C@H](CCCNC(=N)N)NC(=O)CNC(=O)[C@H](CC(C)C)NC(=O)[C@@H](NC(=O)[C@H](C)NC(=O)[C@@H](NC(=O)[C@H](CO)NC(=O)[C@H](CC(C)C)NC(=O)[C@H](CCC(=O)O)NC(=O)[C@H](CO)NC(=O)[C@H](C)NC(=O)CC[C@H](NC(=O)CCCCCCCCCCCCCCCCCCC(=O)O)C(=O)O)[C@@H](C)O)C(C)C)C(=O)N[C@@H](CO)C(=O)N[C@@H](CCC(=O)O)C(=O)N[C@@H](CCC(=O)O)C(=O)N[C@@H](CC(C)C)C(=O)N[C@@H](Cc1c[nH]cn1)C(=O)N[C@@H](CCCNC(=N)N)C(=O)N[C@@H](CC(C)C)C(=O)N[C@@H](CCC(=O)O)C(=O)N[C@@H](CC(=O)O)C(=O)N[C@@H](Cc1ccc(O)cc1)C(=O)N1CCC[C@H]1C(=O)N[C@@H](CCCNC(=N)N)C(=O)N[C@H](C(=O)N[C@@H](CC(=O)O)C(=O)N[C@H](C(=O)NCC(=O)N[C@@H](CO)C(=O)NCC(=O)N[C@@H](CO)C(=O)N1CCC[C@H]1C(N)=O)C(C)C)[C@@H](C)O)", "note": "[calcitonin derivative M34]", "EC50/nM, CRE-luciferase in amylin receptor/CRE-luc CHO cells": 0.058}
{"binder": "{C22 diacid-γGlu-AEEA-AEEA}-ASQLSTAVLGRLSEELHRLQDYPRTDVGSGSP-NH2 (SMILES CC(C)C[C@H](NC(=O)[C@H](CCCNC(=N)N)NC(=O)CNC(=O)[C@H](CC(C)C)NC(=O)[C@@H](NC(=O)[C@H](C)NC(=O)[C@@H](NC(=O)[C@H](CO)NC(=O)[C@H](CC(C)C)NC(=O)[C@H](CCC(N)=O)NC(=O)[C@H](CO)NC(=O)[C@H](C)NC(=O)COCCOCCNC(=O)COCCOCCNC(=O)CC[C@H](NC(=O)CCCCCCCCCCCCCCCCCCCCC(=O)O)C(=O)O)[C@@H](C)O)C(C)C)C(=O)N[C@@H](CO)C(=O)N[C@@H](CCC(=O)O)C(=O)N[C@@H](CCC(=O)O)C(=O)N[C@@H](CC(C)C)C(=O)N[C@@H](Cc1c[nH]cn1)C(=O)N[C@@H](CCCNC(=N)N)C(=O)N[C@@H](CC(C)C)C(=O)N[C@@H](CCC(N)=O)C(=O)N[C@@H](CC(=O)O)C(=O)N[C@@H](Cc1ccc(O)cc1)C(=O)N1CCC[C@H]1C(=O)N[C@@H](CCCNC(=N)N)C(=O)N[C@H](C(=O)N[C@@H](CC(=O)O)C(=O)N[C@H](C(=O)NCC(=O)N[C@@H](CO)C(=O)NCC(=O)N[C@@H](CO)C(=O)N1CCC[C@H]1C(N)=O)C(C)C)[C@@H](C)O)", "note": "[calcitonin derivative M66]", "EC50/nM, CRE-luciferase in amylin receptor/CRE-luc CHO cells": 0.017}
